Data reported in paper PMC10582461, “Self‐Aggregating Tau Fragments Recapitulate Pathologic Phenotypes and Neurotoxicity of Alzheimer's Disease in Mice” (Advanced Science, 2023).

Target: the molecule itself
Test: in vitro self-aggregation, non-reducing SDS-PAGE and immunoblot; tau-AC species alone (40-100 µM) in self-assembly buffer (10 mM HEPES pH 7.4, 100 mM NaCl, 1 mM DTT), 37 °C, shaking 250 rpm, no inducers; non-reducing SDS-PAGE, IB and CBB

B1: tau‐AC‐TQDVSK (tau‐AC with the PHF6 motif substituted with hydrophilic residues) (domain or fragment, human, UniProt P10636-8 306-378, looked up)
chain: TQDVSKPVDLSKVTSKCGSLGNIHHKPGGGQVEVKSEKLDFKDRVQSKIGSLDNITHVPGGGNKKIETHKLTF
notes: human tau residues 306-378 of 2N4R (441 residues) with 306VQIVYK311 changed to TQDVSK; numbers count on: 2N4R tau (441 residues); source: E. coli Rosetta 2 (DE3), pET28a, purified
Does B1 bind?
Result: binds
